Results reported in publication PMC13630248 (PLOS Biology, 2026).

B1: V1WT_41 IgG (antibody, V domains shown)
VH: QVQLQESGPGLVKPSETVSVTCTVSGGSITRSNYYWGWIRQPPGKGLEWIGSIFYNGNTNYNPSLKSRLTISVDTSKNQFSLKLSSVTAADTAVYYCARTAPYYYDRSGYYQKEEYFQRWGQGTLVTVSS
VL: EIVMTQSPSTLSASVGDRVTITCRASQSISTWLAWYQQKPGKAPNLLIYQASSLESGVPSRFSGSGSGTEFTLTISSLQPDDFATYYCQQYNNYPRTFGQGTKLEIK
notes: copies: 2 + 2
B2: VA14_26 IgG (antibody, V domains shown)
VH: QVQLQQWGAGLLKPSDTLSLTCGISGGPFSGYYWSWIRQPPGKGLEWLGEINHSGITTYNPSLKSRGTISVDTSKRQISLKLASVTAADTAVYYCARFAYGDYGWDYSSDMDVWGKGTTVTVSS
VL: DIQLTQSPSTLSASVGDRVTITCRASQSISTWLAWHQQIPGKAPKLLIYRASTLQSGVPSRFSGSGSGTEFTLTISSLQPDDFATYYCQQYYSVRTFGQGTKVDIK
notes: copies: 2 + 2
B3: V1WT_06 IgG (antibody, V domains shown)
VH: EVQLVQSGAEVKKPGASVKVSCKASGYTFSSHGISWVRQAPGQGLEWMGWISTYNGNTNSAQNLQGRVTMTADTSTSTAYMELRSLRSDDTAVYYCARGPWGYCSGTSCYYWTPDNPAYSYHGMDVWGQGTTVTVSS
VL: not shown
notes: copies: 2 + 2
B4: V1WT_06 Fab (Fab, V domains shown)
VH: B3 VH
VL: not shown

Key:
[1] = biological target: T1, SARS-CoV-2 RBD (recombinant receptor binding domain of Spike) (SARS-CoV-2, UniProt P0DTC2); assay: ELISA; conditions: both partners purified
[2] = biological target: RpYN06 Spike, full-length, on the cell surface (Betacoronavirus sp. RpYN06, strain …, strain); assay: flow cytometry on cells; conditions: one partner purified
[3] = biological target: T1, SARS-CoV-2 RBD (recombinant receptor …); assay: SPR; conditions: both partners purified

Binder	binding result [1]	binding result [2]	binding result [3]
B1	binds	binds	
B2		binds	binds
B3		binds	
B4	binds		
